# Experimental data from article PMC5690536.
# Biological target: GST-CD11a αI-domain
# Assay: radioligand binding
substance,measurement,value
32P-labeled pkISG15 (from UniProt P05161 1-157) (natural protein),Kd,656 nM
